Laboratory results taken from the DeepSol protein solubility set.

Test: soluble on expression in E. coli; label from the status in PepcDB or PDB records

Sequence	soluble on expression in E. coli
MPNKNTQEYWEERGRKAIENELKRDKTKAEEIERILNMMIKRIEKEINAFIVKYGDFAGVTLQEAQKIIDEFDVKAFQEEAKRLVENKDFSDRANEELKKYNTKMYVSREQMLKIQIEFLIAYATAQTELSMREYFESTAYRVFSDQAGILGEGVQVAKEVIDTIVDTQFHGVVWSERLWTNTEAMKQEVEEIIANVVIRGRHPNEYVKDMRKHLNKFEGTARQKTAAIKSLLYTESARVHAQSSIDSMKEISPEGYYMYIAKIDNRTTKVCKGLNGEIFKVKDAKIGVNFYPMHINCRSDCALLPKSMWPKKPSKKRKTKYFGGKVKSGD	not soluble
MLNSLEAYNENKFIVFGINDNKEIIGLEKNMFDDAHYQNIIDEYINPRPKIETGQIEYNDEKIGYIAINSNNLETPYELKKELRIKKSKSSLSKGLSFIRKGSTNTPIIQEEREKLILKKTEKNPNNKNLFTALNQKNHAIEEIYYKDNKKSGRKKLDPSNNNGRFTIGELSYEFEMILDVASNEIARIMKTDTIKVARIKNYKDNDIYYELQENLKSPNEVVKKLDTSSRSRDFTLKDLGILINKHGRIAEIFFKEIKSESHGSEENIVEIEWNIPDTKLEHHHHHH	not soluble
HHHHHHDYDIPTTENLYFQGAITLLTLIKTAEHWARQDIRTIEDSKLRALLTLCAVMTRKFSKSQLSLLCETHLRREGLGQDQAEPVLEVYQRLHSDKGGSFEAALWQQWDRQSLIMFITAFLNIALQLPCESSAVVVSGLRTLVPQSDNEE	soluble
MGSDKIHHHHHHSKDKKSTDTKQTETKKTAKTDGTMTDGTYKLEEKNFDDKGWKGFMSIEVKDGKITKANYDYKNKDGKLKSEDADYEKAMKDKVGTGPQEYLKQLSDSLVKGQSASSVEVVSGATHSSDAFINYANQLIQAAQKADTTTISINNLAKMEDGTYKLEEQNYAHGYRVVFSMDVKDGKITKSDYNYVDKDGKLKSDDADYEKNMKAKSGTGPKEYIPALNKSLVEKQDVAAVDTVSGATNSSNQFKIYAAQLQNAAQNGNTDTIKVYNLVEAE	not soluble
DGSPAATPEIRVNHEPEPAGGATPGATLPKSPSQLRKGPPVPPPPKHTPSKEVKQEQILSLFEDTFVPEISVTTPSQPAEASEVAGGTQPAAGAQEPGETAASEAASSSLPAVVVETFPATVNGTVEGGSGAGRLDLPPGFMFKVQAQHDYTATDTDELQLKAGDVVLVIPFQNPEEQDEGWLMGVKESDWNQHKKLEKCRGVFPENFTERVP	soluble
MTRILPCLFLVLLAAAPLLANPANPLNLKKHHGVFCDVCKALVEGGEKVGDDDLDAWLDVNIGTLCWTMLLPLHHECEEELKKVKKELKKDIENKDSPDKACKDVDLC	not soluble
MGSDKIHHHHHHMTTQAKQPSRFDRNPLASENERLILDIVRRHGPIARSVITTHTNLTQQSVHRLIEGLIERGLLRTGAPLKGARGQPSPTIELAVESVASLGISINTDSAIICLADFSCGVIAQKKLELLPLSREATLVSLSRTLDEMLEAHNLPRDRLLGLGFAMSGFSVADDRIFNAPEPLQDWSLMDLRPILEQTFQLPVWQENNATTGAIGESLQGVGRWCQTFAYLSFNYGFGGGLILNGQPFYGFHGNAAELSGIYDPTEAPRRPALQYLLRSLQDHGIEIDSVDTLYRTFDPGWPGVEAWLEATMPQVERLVAVLIAVIDPQAIVFGGQLPPALGAMMIERCPMPSQRVHRYGVGPKEARLVLSEVKGDAAVIGAALLPLKMRYFI	not soluble
SNANAEPAVKAESAGKSVAASLKARLEKTYSAQDLKVLSVSETPVKGIYEVVVSGRQIIYTDAEGGYMFVGELINIDTRKNLTEERAADLNKIDFASLPLDKAIKEVRGNGKLKVAVFSDPDCPFCKRLEHEFEK	not soluble
MPSTADTVEVDFITPRHLAGGGDPAWITVPLHRACGWSHGHDPLMPRALLSSPDQKALLRLEPDPDGQWWTLNHTAESGRPAWYASFGARTPVELIAAFTDALTAPAPPTDAPCDPFEPLRQIAWSAPAVGADGLVSPDGTAYVQRQGSADGPGAWFVTVTLGPRPVWQARFDAHTPEHLVAAFTTALADPKPALRTDSGRSLPTRNPNVVTRKTTDVLAVDIAGALEERVQTLTTRHPLPPANPMPPTPPPTRHGRSRLEHHHHHH	soluble
SNAMKAPELQIQQWFNSATDLTLADLRGKVIVIEAFQMLCPGCVMHGIPLAQKVRAAFPEDKVAVLGLHTVFEHHEAMTPISLKAFLHEYRIKFPVGVDQPGDGAMPRTMAAYQMRGTPSLLLIDKAGDLRAHHFGDVSELLLGAEIATLLGEAAPSV	soluble
MSLAKIPVLEIFGPTIQGEGRVIGRKTMFVRTAGCDYRCSWCDSAFTWDGSAKGDIKLMTAEEIYDELKRIGGDLFNHVTISGGNPALIKGIQELVDLFQDKGIFSALETQGSKFQPWMTQIDDLTISPKPPSSTMTPDLKKLDEVITQCVPSSLNLKVVVFDDKDYDFAKMIHHRYPDIPFYLQVGNPYLSDSVDNHTEKLLERYEQLVDLVMQSNDMNHVYVLPQLHTLLWSNKKGVEGHHHHHH	soluble
MYTYKIGISPEEHDQFVLAQPQAGLLQSSKWGKVKDNWKHERISFYENGVQVAAAACLIRKLPLGFTMIYIPRGPIMDYANFELLDFVIKTLKTFGKSKRALFIKIDPSLVIKQTLEGKESKENDVTLSIIAFLKKLGVEWSGRTKELEDTIQPRIQANIYAKDFDFDSLPKKAKQSIRTATNKGVNVTIGGSELLDDFSALMKKTENRKGIILRGKSYYQKLLGIYAGQSYITMASLDLPEQKKLLIQQLDKALAEQARLTDKSKPSKVAENQKTIARLQKDLTILSEQLATGQTRIPLAATLTLIYGETSENLYAGMDDDYRNYQAPLLTWYETAKEAFKRGCRWHNLGGVENQQDGGLYHFKARLNPTIEEFAGEFNIPVGLVSSLAILTYNLRKKLRSTTNGTN	not soluble
MAHHHHHHMNAKNDASESLLCGGEDISALVVDLGFSTTKIGHNQEDTPRVFLRSTCGEDVSPDGGSPRGDPSPKLKFPLNLHNPKEHLRIKPLFERNPVDNTTHMNSDVFERILRYGIEGVESKRVFHCSDEIPTPVKLGGLNLKIEEHPILLSEENIHNHRVRAEMTEILFETFNIPAVYFAKKAKLTAFSLGRSNALVIDIGGSSLNVTPVYEGYVLQRNSLQFGVGGDYFDRLIYGMLRKDQVRVVPYYEQGRGGSGGLGSASASCSPSCSFSGATHHPNVHSSYEEEAILDVIRYMKESICKVRVAHQSSANKKSETTSGGLKNGKEVEPTGQTHNGAKNVNAPKWQTGQTEEEEFFELPDGVKIKTDKYRYDIAEELFRAVPSAHNFNGLPEAIVNCIISSDVDIRKELLQAIIVTGGSSLFPGLVDRLYNSLREKECFSQSIKMKILNMTSSVECLYSSWLGGSILASLGTFQQLWVSRAEYDDAGHAIVSDRCF	not soluble
MKASIKGKYDTDKTSGIGSLAFNAGDIKLRATMTDATLVAGPTLTGLALAVEKPGSFIVEYNVPKKDVRFQFMNTVRIAEKPLNLTYIHSRADNRTIVDGSLVIDSANKLSANHMVGTNNCKIKYTYAHGGLATFEPCYDLAKNTWDFAVSRRFYSGDNVRATYQTSSKLLGMEWSRNNKASGFKVCASVNLADELKTPKLTAETTWNLEM	soluble
MGSDKIHHHHHHMMKMERKNVWHHRKKEEIEAFSKEYMEFMSKAKTERMTVKEIKRILDESGFVPLEDFAGDPMNMTVYAVNRGKAIAAFRVVDDLKRGLNLVVAHIDSPRLDFKPNPLIEDEQIALFKTHYYGGIKKYHWLSIPLEIHGVLFKNDGTEIEIHIGDKPEDPVFTIPDLLPHLDKEDAKISEKFKGENLMLIAGTIPLSGEEKEAVKTNVLKILNEMYGITEEDFVSGEIEVVPAFSPREVGMDRSLIGAYGQDDRICAYTALRALLSANPEKSIGVIFFDKEEIGSDGNTGAKARFYLKALRQILKMQGAKDSEFVLDEVLENTSVISGDVCAAVNPPYKDVHDLHNAPKLGYGVALVKYTGARGKYSTNDAHAEFVARVRKVLNEQGVIWQVATLGKVDQGGGGTIAKFFAERGSDVIDMGPALLGMHSPFEISSKADLFETYVAYRSLMEKL	not soluble
